Sequences and labels used below:
B1: unnamed (parent)
chain 1: MSMPDAMPLPGVGEELKQAKEIEDAEKYSFMATVTKAPKKQIQFADDMQEFTKFPTKTGRRSLSRSISQSSTDSYSSAASYTDSSDDEVSPREKQQTNSKGSSNFCVKNIKQAEFGRREIEIAEQDMSALISLRKRAQGEKPLAGAKIVGCTHITAQTAVLIETLCALGAQCRWSACNIYSTQNEVAAALAEAGVAVFAWKGESEDDFWWCIDRCVNMDGWQANMILDDGGDLTHWVYKKYPNVFKKIRGIVEESVTGVHRLYQLSKAGKLCVPAMNVNDSVTKQKFDNLYCCRESILDGLKRTTDVMFGGKQVVVCGYGEVGKGCCAALKALGAIVYITEIDPICALQACMDGFRVVKLNEVIRQVDVVITCTGNKNVVTREHLDRMKNSCIVCNMGHSNTEIDVTSLRTPELTWERVRSQVDHVIWPDGKRVVLLAEGRLLNLSCSTVPTFVLSITATTQALALIELYNAPEGRYKQDVYLLPKKMDEYVASLHLPSFDAHLTELTDDQAKYLGLNKNGPFKPNYYRY
chain 2: MATPSNLGSSVLASKTKTKKKHFVAQKVKLFRASDPLLSVLMWGVNHSINELSHVQIPVMLMPDDFKAYSKIKVDNHLFNKENMPSHFKFKEYCPMVFRNLRERFGIDDQDFQNSLTRSAPLPNDSQARSGARFHTSYDKRYVIKTITSEDVAEMHNILKKYHQYIVECHGVTLLPQFLGMYRLNVDGVEIYVIVTRNVFSHRLSVYRKYDLKGSTVAREASDKEKAKELPTLKDNDFINEGQKIYIDDSNKKIFLEKLKKDVEFLAQLKLMDYSLLVGIHDVERAEQEEVECEENEGEEEGESDGAHPIGTPPDSPGNTLNSSPPLAPGEFDPNIDVYAIKCHENAPRKEVYFMAIIDILTHYDAKKKAAHAAKTVKHGAGAEISTVNPEQYSKRFLDFIGHILT
B2: unnamed (parent)
chain 1: B1 chain 1
chain 2: MASASSGPAAAGFSSLDAGAPAGTAAASGIKRATVSEGPSASVMPVKKIGHRSVDSSGETTYKKTTSSALKGAIQLGITHTVGSLSTKPERDVLMQDFYVVESIFFPSEGSNLTPAHHYNDFRFKTYAPVAFRYFRELFGIRPDDYLYSLCSEPLIELSNSGASGSLFYVSSDDEFIIKTVQHKEAEFLQKLLPGYYMNLNQNPRTLLPKFYGLYCVQAGGKNIRIVVMNNLLPRSVKMHMKYDLKGSTYKRRASQKEREKTLPTFKDLDFLQDIPDGLFLDADMYSALCKTLQRDCLVLQSFKIMDYSLLMSIHNMDHAQREPTSNDTQYSADTRRPAPQKALYSTAMESIQGEARRGGTVETEDHMGGIPARNNKGERLLLYIGIIDILQSYRFVKKLEHSWKALVHDGDTVSVHRPGFYAERFQRFMCNTVFKKIPLKPSPTKKFRSGPSFSRRSGPSGNSCTSQLMASGEHRAQVTTKAEVEPDVHLGRPDVLPQTPPLEEISEGSPVPGPSFSPVVGQPLQILNLSSTLEKLDVAESEFTH

One assay covers variants of B1. In words: co-immunoprecipitation, Western blot quantification. The note with it: with partner chain of the complex shown; COS-7 cells; n = 4; parent: 100; read off a plot.
Consider chain 1 S70A, for which the percent of parent was 75 % of WT.

For the variant chain 1 S84A, the percent of parent is 100 % of WT.

In the case of chain 1 S77A, the percent of parent was 11 % of WT.

On to chain 1 S64A, for which the percent of parent is 95 % of WT.

As to chain 1 S85A, the percent of parent was 96 % of WT.

On to chain 1 S74G, for which the percent of parent is 42 % of WT.

Consider chain 1 T82A, for which the percent of parent is 107 % of WT.

As for chain 1 S68A, the percent of parent was 3 % of WT.

Turning to chain 1 T72A, the percent of parent was 67 % of WT.

Take chain 1 S90A: the percent of parent is 130 % of WT.

As to chain 1 S66A, the percent of parent was 71 % of WT.

For the variant chain 1 S80A, the percent of parent was 79 % of WT.

Consider chain 1 S76G, for which the percent of parent was 51 % of WT.

Consider chain 1 S71A, for which the percent of parent was 3 % of WT.

Variants of B2 are the subject of another assay. Described as above. Particulars: with partner chain of the complex shown; COS-7 cells; n = 4; parent: 100; read off a plot.
For the variant chain 1 S77A, the percent of parent is 65 % of WT.

Consider chain 1 S74G, for which the percent of parent is 14 % of WT.

Regarding chain 1 S76G, the percent of parent was 100 % of WT.

Take chain 1 S66A: the percent of parent is 49 % of WT.

Regarding chain 1 S90A, the percent of parent is 120 % of WT.

Turning to chain 1 S64A, the percent of parent was 83 % of WT.

On to chain 1 S68A, for which the percent of parent is 2 % of WT.

Consider chain 1 S85A, for which the percent of parent is 81 % of WT.

As for chain 1 S84A, the percent of parent was 43 % of WT.

Consider chain 1 T72A, for which the percent of parent was 90 % of WT.

On to chain 1 S80A, for which the percent of parent is 57 % of WT.

On to chain 1 S70A, for which the percent of parent is 50 % of WT.

Turning to chain 1 S71A, the percent of parent is 3 % of WT.

Regarding chain 1 T82A, the percent of parent is 26 % of WT.
